Source: article PMC10003451, “Phosphorylated Peptide Derived from the Myosin Phosphatase Target Subunit Is a Novel Inhibitor of Protein Phosphatase-1” (International Journal of Molecular Sciences, 2023)
Where no end group is shown, it is not given here. [ ]: non-standard residue; d: D form. pT = C[C@@H](OP(=O)(O)O)[C@H](N)C(=O)O

Columns and labels:
[1] = molecular target: T1, recombinant protein phosphatase-1 catalytic subunit alpha (PP1cα) (UniProt P62136 1-330); experiment: MST; label-free (Monolith NT.LabelFree, intrinsic fluorescence of rPP1cα); 16-point two-fold peptide dilution 9.16 nM-300 µM mixed with rPP1cα 2 µM; 25 mM Tris/HCl, 100 mM NaCl, 1 mM DTT, 0.1% PEG 8000, pH 8.0; settings: both partners purified
T1 construct: protein phosphatase-1 catalytic subunit, alpha isoform; recombinant; also called rPP1cα; recombinant PP1c; source: E. coli, purified from the bacterial lysate

[2] = molecular target: T1, recombinant protein phosphatase-1 …; experiment: ITC; MicroCal ITC200; rPP1cα (0.5-2 µM) in the cell, peptide (5-20 µM) in the syringe, 19 injections of 2 µL; 25 mM Tris/HCl pH 8.0, 150 mM NaCl, 1 mM TCEP; 25 °C; one set of sites model; settings: both partners purified
[3] = molecular target: Flag-MYPT1-PP1c complex (myosin phosphatase holoenzyme) ( | human (endogenous in …, UniProt O14974 1-1030; P62140 1-327); experiment: cell-based or functional assay
[4] = molecular target: native catalytic subunit of protein phosphatase-1 (PP1c) from rabbit skeletal muscle (rabbit, UniProt P62139 1-330); experiment: cell-based or functional assay
Sequence of native catalytic subunit of protein phosphatase-1 (PP1c) from rabbit skeletal muscle (P62139 whole entry): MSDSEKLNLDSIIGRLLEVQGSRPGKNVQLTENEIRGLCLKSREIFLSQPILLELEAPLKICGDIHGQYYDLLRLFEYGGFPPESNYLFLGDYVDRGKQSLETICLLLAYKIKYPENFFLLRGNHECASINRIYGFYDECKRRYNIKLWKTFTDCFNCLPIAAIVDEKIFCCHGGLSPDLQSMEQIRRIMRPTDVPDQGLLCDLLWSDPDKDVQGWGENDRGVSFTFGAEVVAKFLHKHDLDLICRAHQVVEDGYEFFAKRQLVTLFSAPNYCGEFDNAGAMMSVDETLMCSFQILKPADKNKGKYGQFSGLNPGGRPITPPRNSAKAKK

T1 sequence (P62136 whole entry, canonical isoform): as the sequence (P62139 whole entry) above
Sequence of Flag-MYPT1-PP1c complex (myosin phosphatase holoenzyme) ( | human (O14974 whole entry, chain 1 of 2): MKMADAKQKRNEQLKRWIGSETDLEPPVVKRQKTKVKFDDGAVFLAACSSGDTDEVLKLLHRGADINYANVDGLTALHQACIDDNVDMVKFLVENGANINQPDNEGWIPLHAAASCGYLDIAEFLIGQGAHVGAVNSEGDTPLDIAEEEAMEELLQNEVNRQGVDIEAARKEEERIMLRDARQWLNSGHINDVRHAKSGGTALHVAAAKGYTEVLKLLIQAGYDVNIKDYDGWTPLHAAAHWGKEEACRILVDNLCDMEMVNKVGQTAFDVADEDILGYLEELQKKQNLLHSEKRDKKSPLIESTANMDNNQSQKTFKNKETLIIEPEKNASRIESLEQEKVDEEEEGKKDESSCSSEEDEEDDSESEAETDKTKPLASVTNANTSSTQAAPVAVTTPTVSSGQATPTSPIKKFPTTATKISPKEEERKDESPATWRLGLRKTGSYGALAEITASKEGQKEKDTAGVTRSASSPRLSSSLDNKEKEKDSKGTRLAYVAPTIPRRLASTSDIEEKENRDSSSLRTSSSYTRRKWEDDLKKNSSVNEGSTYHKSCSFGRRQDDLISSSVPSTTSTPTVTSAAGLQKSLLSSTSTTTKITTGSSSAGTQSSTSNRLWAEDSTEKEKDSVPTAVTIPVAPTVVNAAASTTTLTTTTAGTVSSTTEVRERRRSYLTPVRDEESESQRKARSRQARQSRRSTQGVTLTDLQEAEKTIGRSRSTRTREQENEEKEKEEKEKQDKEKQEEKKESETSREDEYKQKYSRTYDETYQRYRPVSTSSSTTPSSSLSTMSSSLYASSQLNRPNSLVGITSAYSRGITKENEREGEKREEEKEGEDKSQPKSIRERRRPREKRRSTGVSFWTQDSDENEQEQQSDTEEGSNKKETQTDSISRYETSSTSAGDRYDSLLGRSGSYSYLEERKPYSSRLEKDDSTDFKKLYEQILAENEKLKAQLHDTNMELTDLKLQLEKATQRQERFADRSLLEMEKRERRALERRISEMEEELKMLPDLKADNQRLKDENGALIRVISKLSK
Sequence of Flag-MYPT1-PP1c complex (myosin phosphatase holoenzyme) ( | human (P62140 whole entry, chain 2 of 2): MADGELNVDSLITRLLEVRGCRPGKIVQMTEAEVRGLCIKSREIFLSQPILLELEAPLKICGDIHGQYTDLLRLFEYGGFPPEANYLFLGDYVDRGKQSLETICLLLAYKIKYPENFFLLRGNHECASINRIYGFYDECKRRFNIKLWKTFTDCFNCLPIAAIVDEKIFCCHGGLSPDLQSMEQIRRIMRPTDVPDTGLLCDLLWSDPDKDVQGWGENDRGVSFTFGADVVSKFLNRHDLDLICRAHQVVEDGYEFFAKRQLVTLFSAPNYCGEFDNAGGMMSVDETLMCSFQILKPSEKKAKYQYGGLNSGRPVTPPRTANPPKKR

Kd [1]: 33.2 ± 5.12 µM
Kd [2]: 390 ± 180 nM
IC50 of inhibition of the phosphatase activity of Flag-MYPT1-PP1c with 32P-MLC20 substrate [3]: 12.2 µM
IC50 of inhibition of the phosphatase activity of rabbit skeletal muscle PP1c with 32P-MLC20 substrate [4]: 3.84 µM
half-life of dephosphorylation of 10 µM 32P-MLC20 by 100 nM PP1c with 0, 10, 100 and 500 µM peptide (101.6, 149.7, 227.9, 604.06 s); the peptide competes with the substrate P-MLC20 on PP1c [4]: 604 s
half-life of dephosphorylation of 100 µM peptide by 100 nM PP1c in the presence of 10 µM P-MLC20 (dot blot; 87.9 min without P-MLC20) [4]: ~103 min
B1: P-Thr696-MYPT1^690−701 (phosphorylated peptide of the inhibitory region of myosin phosphatase target subunit-1) (peptide)
peptide: RQSRRS[pT]QGVTL
notes: myosin phosphatase target subunit-1 (MYPT1), residues 690-701, phosphorylated at Thr696; no tags; also called R^690QSRRS(pT696)QGVTL^701; P-Thr-MYPT1^690−701; source: synthetic peptide, bought: Pepmic
